Molecular target: wild-type pneumolysin (PLY) (Streptococcus pneumoniae) (UniProt Q04IN8)
Test: ELISA

Chain of UniProt Q04IN8 (Q04IN8 whole entry): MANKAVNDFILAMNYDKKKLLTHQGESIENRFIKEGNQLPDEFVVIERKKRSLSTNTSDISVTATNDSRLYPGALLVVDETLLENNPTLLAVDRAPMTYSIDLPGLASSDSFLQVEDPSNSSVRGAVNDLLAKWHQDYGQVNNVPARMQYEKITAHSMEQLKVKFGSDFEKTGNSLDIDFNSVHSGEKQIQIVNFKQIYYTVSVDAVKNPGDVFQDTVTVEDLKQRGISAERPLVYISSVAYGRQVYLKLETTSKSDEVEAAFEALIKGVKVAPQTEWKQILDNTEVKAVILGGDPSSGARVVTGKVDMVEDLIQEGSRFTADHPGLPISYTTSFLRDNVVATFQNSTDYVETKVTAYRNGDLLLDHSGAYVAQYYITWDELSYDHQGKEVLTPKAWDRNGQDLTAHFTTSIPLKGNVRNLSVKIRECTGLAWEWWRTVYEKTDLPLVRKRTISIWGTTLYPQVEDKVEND

Work on “G-actin (non-muscle actin isolated from human platelets) (from UniProt P60709 1-375) (natural protein)” yielded a Kd of 170 to 190 nM.
